In US12030920 (IN3BIO, dated 2024):

Molecular target: the molecule itself
Experiment: self-assembly of CT-B subunits, pH shift, SDS-PAGE and Western blot

B1: native CT-B protein (other)
chain: TPQNITDLCAEYHNTQIYTLNDKIFSYTESLAGKREMAIITFKNGAIFQVEVPGSQHIDSQKKAIERMKDTLRIAYLTEAKVEKLCVWNNKTPHAIAAISMAN
binding result: binds
